Laboratory results as given in patent US20250339569A1 (3B PHARMACEUTICALS, published 2025).
Starred links: 1 amine or outer side, 2 acyl side, 3 side chain; linkers in the order of their positions; H or OH if unused. Positions of bridges follow the written chain, without caps; N, C: chain ends. Non-standard residues stand in square brackets, D forms with d. Primed or numbered codes have the meaning given here. *: point of attachment. Af3(CMPy) = 3-amino-L-phenylalanine acylated on the ring amine with 5-cyano-1-methyl-1H-pyrazole-4-carboxylic acid, Cn1ncc(C(=O)Nc2cccc(C[C@H](N[*:1])C(=O)[*:2])c2)c1C#N; Aph(3MSaBz) = 4-aminophenylalanine, ring amine acylated with 3-(sulfamoylmethyl)benzoic acid, NS(=O)(=O)Cc1cccc(C(=O)Nc2ccc(C[C@H](N[*:1])C(=O)[*:2])cc2)c1; Af3(OPyAc) = 3-aminophenylalanine, ring amine acylated with 2-(2-oxopyridin-1-yl)acetic acid, O=C(Cn1ccccc1=O)Nc1cccc(C[C@H](N[*:1])C(=O)[*:2])c1; Aph(HYDAc) = 4-amino-L-phenylalanine, ring amine acylated by hydantoin-5-acetic acid; APAc″ = 2-(4-(amino)piperidin-1-yl)acetic acid, NC1CCN(CC(=O)*)CC1; DOTA = O=C(O)CN1CCN(CC(=O)O)CCN(CC(=O)*)CCN(CC(=O)O)CC1; mXylylene = c1cc(C[*:1])cc(C[*:2])c1; N4AzPhCONH2 = not defined here; N4BzlCONH2 = not defined here; N4DazPhCN = not defined here; N6MeQuion = not defined here; N4BzlCN = not defined here; N4BzlCl = not defined here; NOAzOMe = not defined here; APAc = not defined here; Dap = NC[C@H](N)C(=O)O; AEEA = NCCOCCOCC(=O)O

B1: 3BP-4262 (peptide)
peptide: {DOTA-AEEA}-DCE[dP]DWLTW[Dap]C-NH2
modifications: lactam 10-1; linker 2-11 via mXylylene
SMILES: CC(C)C[C@@H]1NC(=O)[C@H](Cc2c[nH]c3ccccc23)NC(=O)[C@H](CC(=O)O)NC(=O)[C@H]2CCCN2C(=O)[C@H](CCC(=O)O)NC(=O)[C@@H]2CSCc3cccc(c3)CSC[C@@H](C(N)=O)NC(=O)[C@H](CNC(=O)C[C@H](NC(=O)COCCOCCNC(=O)CN3CCN(CC(=O)O)CCN(CC(=O)O)CCN(CC(=O)O)CC3)C(=O)N2)NC(=O)[C@H](Cc2c[nH]c3ccccc23)NC(=O)[C@H]([C@@H](C)O)NC1=O

Target: human carbonic anhydrase IX (CAIX) (human, UniProt Q16790 38-459)
Test: FACS competition, HT-29 cells, tracer 3BP-4149; pIC50 category B: 7.1-8.0
Procedure: (§1) CAIX-expressing human HT-29 colorectal cancer cells (DSMZ, RRID: CVCL_0320) were cultured in McCoys's 5A modified medium (Biochrom, #F1015) including 10% fetal calf serum (FCS), 2 mM L-glutamine, 100 U/ml penicillin and 100 μg/mL streptomycin. Cells were detached with Accutase (Biolegend, #423201) and washed in FACS buffer (PBS including 1% FCS). Cells were diluted in FACS buffer to a final concentration of 500.000 cells per ml. 200 μL of the cell suspension were transferred to a u-shaped non-binding 96-well plate (Greiner) and cells were washed in ice-cold FACS buffer.
(§2) When biotinylated compounds were used an additional incubation step with 1 μg/mL APC-Streptavidin (Miltenyi; #130-106-791) in 50 μL FACS buffer for 30 minutes on ice was performed.
(§3) Cells were washed twice with ice-cold FACS buffer and analyzed in an Attune NxT flow cytometer (Thermo Fisher). Median fluorescence intensities (MFI) of the APC/Cy5-channel were calculated by Attune NxT software.

pIC50, 7.1 to 8 pic50:
{DOTA-APAc}-VYCE[dP]D[Aph(HYDAc)]LTWSC-NH2 (linker 3-12 via mXylylene; reading uncertain) [3BP-4458]
{DOTA-APAc}-VYCE[dP]E(N4AzPhCONH2)WLTWSC-NH2 (linker 3-12 via mXylylene; reading uncertain) [3BP-4388]
{DOTA-APAc}-VYCE[dP]D[Aph(3MSaBz)]LTWSC-NH2 (linker 3-12 via mXylylene; reading uncertain) [3BP-4399]
{DOTA-APAc}-VYCE[dP]D[Af3(OPyAc)]LTWSC-NH2 (linker 3-12 via mXylylene; reading uncertain) [3BP-4370]
{DOTA-APAc}-VYCE[dP]E(N6MeQuion)WLTWSC-NH2 (linker 3-12 via mXylylene; reading uncertain) [3BP-4390]
{DOTA-APAc}-VYCE[dP]E(N4DazPhCN)WLTWSC-NH2 (linker 3-12 via mXylylene; reading uncertain) [3BP-4389]

Target: human carbonic anhydrase 9 (CAIX) (human, UniProt Q16790 38-459)
Test: FACS competition on HT-29 cells, competitor tracer 3BP-4149; category B = pIC50 7.1-8.0
Procedure: as §1, §2, §3

pIC50, 7.1 to 8 pic50:
B1
{DOTA-APAc″}-VYCE[dP]E(N4BzlSO2Me)WLTWSC-NH2 (linker 3-12 via mXylylene) [3BP-4333]
{DOTA-APAc″}-VYCE[dP]E(N4BzlCONH2)WLTWSC-NH2 (linker 3-12 via mXylylene; not fully specified; reading uncertain) [3BP-4345]
{DOTA-APAc″}-VYCE[dP]E(NOAzOMe)WLTWSC-NH2 (linker 3-12 via mXylylene; reading uncertain) [3BP-4339]
{DOTA-APAc″}-VYCE[dP]E(N4BzlCl)WLTWSC-NH2 (linker 3-12 via mXylylene; reading uncertain) [3BP-4334]
{DOTA-APAc″}-VYCE[dP]E(N4BzlCN)WLTWSC-NH2 (linker 3-12 via mXylylene; not fully specified; reading uncertain) [3BP-4340]
{DOTA-APAc″}-VYCE[dP]D[Af3(CMPy)]LTWSC-NH2 (linker 3-12 via mXylylene) [3BP-4305]
